Measured values: PMC2887044 (Journal of molecular biology, 2010)
Where two headings read alike, the source gives them in different places.

Legend:
Assay in all cases: FRET or BRET
[1] = biological target: the molecule itself
[2] = biological target: the molecule itself; remark: listed apart in the source
[3] = biological target: the molecule itself; remark: listed apart in the source

B1: Alexa-labelled apoC-II S61C (Alexa-488 apoC-II; Alexa-594 apoC-II) (natural protein, human, UniProt P02655 23-101, looked up)
chain: TQQPQQDEMPSPTFLTQVKESLSSYWESAKTAAQNLYEKTYLPAVDEKLRDLYSKSTAAMCTYTGIFTDQVLSVLKGEE
modifications: conjugated with Alexa dyes (Alexa 488 C5 maleimide or Alexa 594 C5 maleimide)
B1 gave a koff [1] of 0.161 s⁻¹, a koff [2] of 0.0125 s⁻¹ and a koff [3] of 0.00639 s⁻¹.
